Measurements from publication PMC6099927, “Aptamer Display on Diverse DNA Polyhedron Supports”.

Columns and labels:
[1] = biological target: T1, Plasmodium falciparum lactate dehydrogenase (PfLDH) (Plasmodium falciparum, UniProt Q27743 1-316); assay: APTEC plate capture assay; 2x PBS binding buffer (recombinant PfLDH), 1 h, streptavidin plate coated with DNA, PBST (0.1% Tween-20) washes, absorbance 570 nm; blood: 1:1 with PBS 0.5% Triton X-100; pH and temperature not stated; details: protein: recombinant, tags: His (HisTrap purified), chain copies: 4
[2] = biological target: T1, Plasmodium falciparum lactate …; assay: APTEC plate capture assay (enzyme activity of captured PfLDH), logistic fit; 2x PBS binding buffer (recombinant PfLDH), 1 h, streptavidin plate coated with DNA, PBST (0.1% Tween-20) washes, absorbance 570 nm; blood: 1:1 with PBS 0.5% Triton X-100; pH and temperature not stated; details: protein: recombinant; tags: His (HisTrap purified); chain copies: 4; label: 5' biotin; single strand
[3] = biological target: T1, Plasmodium falciparum lactate …; assay: APTEC plate capture assay; higher signal than aptamer alone; 2x PBS binding buffer (recombinant PfLDH), 1 h, streptavidin plate coated with DNA, PBST (0.1% Tween-20) washes, absorbance 570 nm; blood: 1:1 with PBS 0.5% Triton X-100; pH and temperature not stated; details: protein: recombinant, tags: His (HisTrap purified), chain copies: 4

T1 sequence (Q27743 whole entry): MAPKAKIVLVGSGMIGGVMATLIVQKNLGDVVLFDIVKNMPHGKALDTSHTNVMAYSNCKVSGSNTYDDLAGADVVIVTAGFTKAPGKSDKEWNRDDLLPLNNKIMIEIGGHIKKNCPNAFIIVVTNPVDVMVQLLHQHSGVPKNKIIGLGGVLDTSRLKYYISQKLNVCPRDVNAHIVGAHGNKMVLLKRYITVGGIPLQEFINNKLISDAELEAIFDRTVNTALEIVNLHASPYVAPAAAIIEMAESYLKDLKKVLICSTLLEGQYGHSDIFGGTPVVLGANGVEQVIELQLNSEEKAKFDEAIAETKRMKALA

B1: aptamer square-based pyramid (mixed)
DNA 1: TTATGTAACCGTGTCACTCCAGGTGTACTTCCTAAAATCGCGCGACCAG
DNA 2: TTCACGGTTACATTCTGTGTTGGCACGGCGTCGTCCGGGTGGCGGTT
DNA 3: TTCACCTGGAGTGTAACCGCCACCCGGACGTCGTTCGTCAAATAGTG
DNA 4: TTTTTTAGGAAGTTCACTATTTGACGAACGTGCTATGCCGCGCGCCT
DNA 5: CTGGGCGGTAGAACCATAGTGACCCAGCCGTCTACTTCGCCGTGCCAACACAGTCTGGTCGCGCGTAGGCGCGCGGCATAGC
Work on B1 yielded a Kd ([1]; label: 5' biotin on P1a-P1d, square-based pyramid of 5 strands) of 5.99 ± 0.64 nM.

B2: PfLDH aptamer alone (Apt) (structured_DNA)
DNA: CTGGGCGGTAGAACCATAGTGACCCAGCCGTCTAC
With B2 the Kd [2] was 12.7 ± 0.71 nM.

B3: aptamer with double-stranded spacer (C2a/C2b) (mixed)
DNA 1: CTGGGCGGTAGAACCATAGTGACCCAGCCGTCTACTTTGGGGCCGGGCGCGCCCCGGTT
DNA 2: TTCCGGGGCGCGCCCGGCCCCA
B3: binds ([3]; label: 3' biotin on C2a, 20 bp spacer duplex, 5' aptamer overhang).

B4: aptamer with single-stranded spacer (C2a) (structured_DNA)
DNA: CTGGGCGGTAGAACCATAGTGACCCAGCCGTCTACTTTGGGGCCGGGCGCGCCCCGGTT
B4: binds ([3]; label: 3' biotin, single strand).

B5: aptamer pentagon-based pyramid (mixed)
DNA 1: TTCGGCCGATCTGGCATAGGCTTCCCCAACGTTATCTCGCGTGGCGTACGG
DNA 2: TTGATCGGCCGTTCCGCGCGTCCTGCCCTAGACGCCCCTGGGCCC
DNA 3: TTGCCTATGCCTGGGCCCAGGGGCGTCTTGGAGTCAACAGGTCGG
DNA 4: TTCGTTGGGGATCCGACCTGTTGACTCCTCCCGTCGACCAAAGAT
DNA 5: TTCGCGAGATATATCTTTGGTCGACGGGTCTCAGCCCTGACCCCA
DNA 6: CTGGGCGGTAGAACCATAGTGACCCAGCCGTCTACTTGGGCAGGACGCGCGGATCCGTACGCCTTGGGGTCAGGGCTGAG
With B5 the Kd ([1]; label: 5' biotin on P2a-P2e, pentagon-based pyramid of 6 strands) was 14.8 ± 0.8 nM.

B6: aptamer-tetrahedron 1 (mixed)
DNA 1: TTTTGCGGCTGGAGCCATGTCATCAGGGGCACGTCTCTAGGACGCGGCCGGGTCT
DNA 2: TTCATGGCTCCAGCCGCAATGACGGGACCGTGTGCCTGAGC
DNA 3: TTGAGACGTGCCCCTGATGTGCTCAGGCACTGCAGGGCAAA
DNA 4: CTGGGCGGTAGAACCATAGTGACCCAGCCGTCTACTTCGGTCCCGTCTAGACCCGGCCGCGTCCTTTTTGCCCTGC
B6 gave a Kd ([1]; label: 5' biotin on Ta, T1b, T1c, tetrahedron of 4 strands, height 2.65 nm) of 1.22 ± 0.13 nM.

B7: aptamer-tetrahedron 2 (mixed)
DNA 1: TTTTGCGGCTGGAGCCATGTCATCAGGGGCACGTCTCTAGGACGCGGCCGGGTCT
DNA 2: TTCATGGCTCCAGCCGCAATTATCTAGCGATCTCACCTCGTCAAGGGTAAGCCCG
DNA 3: TTGAGACGTGCCCCTGATGTCGGGCTTACCCTTGACGTGTGGTAATTGTTGTGTA
DNA 4: CTGGGCGGTAGAACCATAGTGACCCAGCCGTCTACTTGGTGAGATCGCTAGATATAGACCCGGCCGCGTCCTTTACACAACAATTACCAC
B7 showed a Kd ([1]; label: 5' biotin on Ta, T2b, T2c, tetrahedron of 4 strands, height 6.72 nm) of 2.09 ± 0.15 nM.

B8: aptamer-tetrahedron 3 (mixed)
DNA 1: TTTTGCGGCTGGAGCCATGTCATCAGGGGCACGTCTCTAGGACGCGGCCGGGTCT
DNA 2: TTCATGGCTCCAGCCGCAATTGATCATTGAGTGTCGGTGGCGATGTCTCCCCGATAAAGCGTATGTTATAAGTCT
DNA 3: TTGAGACGTGCCCCTGATGTAGACTTATAACATACGCTTTATCGGGGTCCGGAGCCATCACACCTGGATCAGGAC
DNA 4: CTGGGCGGTAGAACCATAGTGACCCAGCCGTCTACTTGACATCGCCACCGACACTCAATGATCATAGACCCGGCCGCGTCCTTGTCCTGATCCAGGTGTGATGGCTCCGG
With B8 the Kd ([1]; label: 5' biotin on Ta, T3b, T3c, tetrahedron of 4 strands, height 10.55 nm) was 1.61 ± 0.1 nM.
